Laboratory results reported in article PMC2568807.

Biological target: ovine CRY1 (Cryptochrome 1), Flag-tagged (sheep)

**Q.** With “ovine Fbxl21 full-length, Myc-tagged (from UniProt B3FL73 1-434) (natural protein)” as the substance, how does the attenuation of oCRY1 repression of oCLK/oBM1-induced oRev-erb alpha luciferase reporter transactivation in COS7 cells (100 or 200 ng Fbxl vector) read?
**A.** The attenuation of oCRY1 repression of oCLK/oBM1-induced oRev-erb alpha luciferase reporter transactivation in COS7 cells (100 or 200 ng Fbxl vector) was 75%.
